The record followed here is PMC8629192 (bioRxiv, 2021).

In the assay the target is SARS-CoV-2 spike RBD-Fc recombinant protein (used for ELISA) (SARS-CoV-2, UniProt P0DTC2). The experiment in a line: ELISA. (In general: In an ELISA, binding on a coated surface is turned into a signal by an enzyme label.)

B1: LRRC15-His (natural protein)
chain: YHGCPSECTCSRASQVECTGARIVAVPTPLPWNAMSLQILNTHITELNESPFLNISALIALRIEKNELSRITPGAFRNLGSLRYLSLANNKLQVLPIGLFQGLDSLESLLLSSNQLLQIQPAHFSQCSNLKELQLHGNHLEYIPDGAFDHLVGLTKLNLGKNSLTHISPRVFQHLGNLQVLRLYENRLTDIPMGTFDGLVNLQELALQQNQIGLLSPGLFHNNHNLQRLYLSNNHISQLPPSVFMQLPQLNRLTLFGNSLKELSPGIFGPMPNLRELWLYDNHISSLPDNVFSNLRQLQVLILSRNQISFISPGAFNGLTELRELSLHTNALQDLDGNVFRMLANLQNISLQNNRLRQLPGNIFANVNGLMAIQLQNNQLENLPLGIFDHLGKLCELRLYDNPWRCDSDILPLRNWLLLNQPRLGTDTVPVCFSPANVRGQSLIIINVNVAVPSVHVPEVPSYPETPWYPDTPSYPDTTSVSSTTELTSPVEDYTDLTTIQVTDDRSVWGMTQAQSG
Turning to B1, the binding result is on record as “binds”.
